Measured values as given in patent US20210347891A1.
Changes are numbered by the printed parent chain. Names and notes keep the numbering of the source. Values belong to the binder of their own block, whether it stands above or below them.

Key:
[1] = target: single chain FcRn-β2m-his (human scFcRn, Acro Biosystems Cat. No. FCM-H5286) (human) (UniProt P55899); test: SPR, antibody on CM5 chip, scFcRn, pH 5.8
[2] = target: single chain FcRn-β2m-his (human scFcRn, Acro Biosystems Cat. No. FCM-H5286) (human) (UniProt P55899); test: SPR, antibody on CM5 chip, scFcRn 400-25 nM, pH 5.8 PBS, 1:1 Langmuir
[3] = target: single chain FcRn-β2m-his (human scFcRn, Acro Biosystems Cat. No. FCM-H5286) (human) (UniProt P55899); test: SPR, antibody on CM5 chip, scFcRn 400-25 nM, pH 5.8 PBS

single chain FcRn-β2m-his (human scFcRn, Acro Biosystems Cat. No. FCM-H5286) (human), sequence (P55899 other isoform, or with tags, fused parts or gaps): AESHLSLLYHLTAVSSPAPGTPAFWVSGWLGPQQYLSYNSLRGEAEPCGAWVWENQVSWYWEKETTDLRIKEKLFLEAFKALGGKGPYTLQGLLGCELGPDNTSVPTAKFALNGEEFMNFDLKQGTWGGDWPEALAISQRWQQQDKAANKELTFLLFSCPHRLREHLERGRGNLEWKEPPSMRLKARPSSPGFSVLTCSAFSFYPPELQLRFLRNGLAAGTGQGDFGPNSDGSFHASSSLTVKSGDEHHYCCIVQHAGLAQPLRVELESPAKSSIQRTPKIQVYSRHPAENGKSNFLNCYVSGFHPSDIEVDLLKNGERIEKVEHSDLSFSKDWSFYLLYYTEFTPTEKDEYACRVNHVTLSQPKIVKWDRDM

B1: Herceptin-IgG4-DHS (L309D, Q311H, N434S) (antibody, part only; not given: trastuzumab Fab, not shown: another chain or arm of the molecule)
Fc: ESKYGPPCPSCPAPEFLGGPSVFLFPPKPKDTLMISRTPEVTCVVVDVSQEDPEVQFNWYVDGVEVHNAKTKPREEQFNSTYRVVSVLTVDHHDWLNGKEYKCKVSNKGLPSSIEKTISKAKGQPREPQVYTLPPSQEEMTKNQVSLTCLVKGFYPSDIAVEWESNGQPENNYKTTPPVLDSDGSFFLYSRLTVDKSRWQEGNVFSCSVMHEALHSHYTQKSLSLSLGK
modifications: Glycosylated Fc homodimer (HEK293F); one chain is given.
fold enhanced KD comparing with wild type IgG4 [1]: 3 fold | Kd [2]: 832 nM | koff [2]: 0.151 s⁻¹ | kon [2]: 281000 M⁻¹ s⁻¹

B4: Herceptin-IgG2 (wild type IgG2 with the Fab of trastuzumab) (antibody, part only; not given: Fab (trastuzumab), not shown: another chain or arm of the molecule)
Fc: ERKCCVECPPCPAPPVAGPSVFLFPPKPKDTLMISRTPEVTCVVVDVSHEDPEVQFNWYVDGVEVHNAKTKPREEQFNSTFRVVSVLTVVHQDWLNGKEYKCKVSNKGLPAPIEKTISKTKGQPREPQVYTLPPSREEMTKNQVSLTCLVKGFYPSDISVEWESNGQPENNYKTTPPMLDSDGSFFLYSKLTVDKSRWQQGNVFSCSVMHEALHNHYTQKSLSLSPGK
modifications: Glycosylated at N297 (HEK293F expression). The Fc is a disulfide-linked homodimer in the full IgG.
Kd [3]: 2140 nM

B5: Herceptin-IgG2-DHS (V309D, Q311H, N434S) (antibody, part only; not given: trastuzumab Fab, not shown: another chain or arm of the molecule)
Fc: B4 Fc with V90D, Q92H, N215S
modifications: Glycosylated at N297 (HEK293F expression). The Fc is a disulfide-linked homodimer in the full IgG.
fold enhanced KD comparing with wild type IgG2 [1]: 5.7 fold | Kd [2]: 377 nM | koff [2]: 0.086 s⁻¹ | kon [2]: 227000 M⁻¹ s⁻¹

Further lines, results first:

Kd [3]: 4080 nM
B2: Herceptin-IgG3 (wild type IgG3 with the Fab of trastuzumab) (antibody, part only; not given: trastuzumab Fab; H435 or R435 unclear, not shown: another chain or arm of the molecule)
Fc: ELKTPLGDTTHTCPRCPEPKSCDTPPPCPRCPEPKSCDTPPPCPRCPEPKSCDTPPPCPRCPAPELLGGPSVFLFPPKPKDTLMISRTPEVTCVVVDVSHEDPEVQFKWYVDGVEVHNAKTKPREEQYNSTFRVVSVLTVLHQDWLNGKEYKCKVSNKALPAPIEKTISKTKGQPREPQVYTLPPSREEMTKNQVSLTCLVKGFYPSDIAVEWESSGQPENNYNTTPPMLDSDGSFFLYSKLTVDKSRWQQGNIFSCSVMHEALHNHFTQKSLSLSPGK
modifications: Glycosylated Fc homodimer (HEK293F); one chain is given.

fold enhanced KD comparing with wild type IgG3 [1]: 5.5 fold | Kd [2]: 739 nM | koff [2]: 0.126 s⁻¹ | kon [2]: 170000 M⁻¹ s⁻¹
B3: Herceptin-IgG3-DHS (L309D, Q311H, N434S) (antibody, part only; not given: trastuzumab Fab, not shown: another chain or arm of the molecule)
Fc: B2 Fc with L141D, Q143H, N266S
modifications: Glycosylated Fc homodimer (HEK293F); one chain is given.
